B1: Meiosis-specific protein SPO11 (Saccharomyces cerevisiae), P23179 (parent)
chain: MALEGLRKKYKTRQELVKALTPKRRSIHLNSNGHSNGTPCSNADVLAHIKHFLSLAANSLEQHQQPISIVFQNKKKKGDTSSPDIHTTLDFPLNGPHLCTHQFKLKRCAILLNLLKVVMEKLPLGKNTTVRDIFYSNVELFQRQANVVQWLDVIRFNFKLSPRKSLNIIPAQKGLVYSPFPIDIYDNILTCENEPKMQKQTIFPGKPCLIPFFQDDAVIKLGTTSMCNIVIVEKEAVFTKLVNNYHKLSTNTMLITGKGFPDFLTRLFLKKLEQYCSKLISDCSIFTDADPYGISIALNYTHSNERNAYICTMANYKGIRITQVLAQNNEVHNKSIQLLSLNQRDYSLAKNLIASLTANSWDIATSPLKNVIIECQREIFFQKKAEMNEIDARIFEYK
partner: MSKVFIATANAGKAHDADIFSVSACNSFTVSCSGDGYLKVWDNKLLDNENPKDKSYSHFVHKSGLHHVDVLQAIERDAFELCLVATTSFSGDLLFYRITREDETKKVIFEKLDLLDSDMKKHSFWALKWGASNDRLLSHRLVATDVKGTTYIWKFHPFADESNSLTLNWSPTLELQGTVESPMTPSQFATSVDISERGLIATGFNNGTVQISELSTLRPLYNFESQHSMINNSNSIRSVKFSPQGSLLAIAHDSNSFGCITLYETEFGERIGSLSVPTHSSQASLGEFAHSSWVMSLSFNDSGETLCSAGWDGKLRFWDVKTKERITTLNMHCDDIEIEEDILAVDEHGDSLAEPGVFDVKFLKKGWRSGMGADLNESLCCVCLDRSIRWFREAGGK

Variants of: B1
Details: with ski8_yeast SKI8, Q02793

Variant | effect of a mutation on the interaction
Q376A | disrupting interaction strength
R377A;E378A | disrupting interaction strength

Reference: IntAct's records for PubMed 14992724
